No end group written: not given here.

Test [1] has as its target peptide A19 of the second library (aa 12-20, F19 to alanine) (biotinylated (position not given)). The test is described as follows: ELISA, biotinylated alanine-substituted peptides on streptavidin plate, O.D. 405 nm [middle chart, Figure 2]. The source says: (§1) One library comprised a total of 33 biotinylated peptides covering the complete amino acid (aa) sequence of Aβ1-42 (produced by Mimotopes and purchased from ANAWA Trading SA), the second library contains biotinylated peptides using peptide 12 (aa12-20 of Aβ) from the first peptide library and substituting each aa in the sequence by an alanine (see table 8 below), and the third library contains biotinylated peptides 13, 14, or 15 (aa 13-21, 14-22 or 15-23 of Aβ) and substituting in each case the last amino acids to an alanine or to a glycine for aa 21 which is already an alanine (see table 9 below). A biotinylated complete Aβ1-42 peptide was used as positive control (Bachem). Epitope mapping was done according to the manufacturer's (Mimotopes) instructions. Briefly, Streptavidin coated plates (NUNC) were blocked with 0.1% BSA in PBS overnight at 4° C. After washing with PBS-0.05% Tween 20, plates were coated for 1 hour at RT with the different peptides from the library, diluted in 0.1% BSA, 0.1% Sodium Azide in PBS to a final concentration of 10 μM. […] Plates were washed again and incubated with alkaline phosphatase conjugated goat anti human IgG for 1 h at RT.

The target in test [2] is T1, peptide A17 of the second library (aa 12-20, L17 to alanine) (also: biotinylated, position not given here).
T1 peptide: VHHQKAVFF
The description is as above.
Description: as §1

For test [3], the target named is T2, peptide A16 of the second library (aa 12-20, K16 to alanine) (biotinylated (position not given)). Described as above.
Description: as §1

The target in test [4] is T3, peptide A20 of the second library (aa 12-20, F20 to alanine) (also: biotinylated, position not given here).
T3 peptide: VHHQKLVFA
Described as above.
Description: as §1

Test [5] deals with T4, amyloid beta 1-42 monomers (UniProt P05067 672-713).
T4 construct: domain: amyloid beta 1-42; also called Aβ1-42 monomers; amyloid monomers
Kind of test: SPR (BIACORE), Aβ1-42 monomers immobilized on CM5 chip, antibody 0.05-1.0 µM; monomers immobilized on a CM5 chip. Here is the method: BIACORE® technology utilizes changes in the refractive index at the surface layer upon binding of the antibody to the antigen immobilized on the layer. Binding is detected by surface plasmon resonance (SPR) of laser light refracting from the surface. Analysis of the signal kinetics on rate and off rate allows the discrimination between non-specific and specific interaction. The concentration of antibody used was in the range of 0.05 μM to 1.0 μM.

In test [6] the target is T5, soluble polymeric amyloid beta (oligomers) (UniProt P05067 672-713).
T5 construct: domain: amyloid beta 1-42; also called amyloid oligomers; Abeta oligomer
Kind of test: ELISA on coated amyloid (55 µg/ml); mC2 at 0.625 ug/ml. Here is the method:
(§2) In order to evaluate the specificity of mC2 to different stages of polymerized amyloid protein, monomeric, polymeric soluble and fibrillic amyloid, an ELISA coated with these different stages of polymeric beta-amyloid was performed (FIG. 9). Monomers were prepared according to a modified method published by (Klein, 2002), soluble polymeric amyloid beta according to (Barghorn et al., 2005), whereas fibers were performed by incubation of amyloid (Bachem, Switzerland) with a final concentration of 1 μg/μl in Tris/HCl pH 7.4 at 37° C. for 5 days followed by a centrifugation step (10,000 rpm for 5 minutes). Then amyloid polymers were coated on an ELISA plates with a final concentration of 55 μg/ml and binding affinity ELISA by using an anti-mouse IgG monoclonal antibody (Jackson) labelled with alkaline phosphate was performed.

In a further test the target is T6, amyloid beta 1-42 fibers (UniProt P05067 672-713).
T6 construct: domain: amyloid beta 1-42; Many copies per fiber; also called Aβ1-42 fibers; fibrillar Aβ1-42
The test is described as above. The protocol:
as §2

The target of test [7] is T4, amyloid beta 1-42 monomers. The test is described as above. Here is the method: as §2
The target of test [8] is T2, peptide A16 of the second library (aa …). The test is described as follows: ELISA on biotinylated peptides on streptavidin plates. Here is the method:
(§3) Epitope mapping of the monoclonal antibody mACI-01-Ab7 C2 was performed by ELISA using three different peptide libraries. One library comprises a total of 33 biotinylated peptides covering the complete amino acid (aa) sequence of Aβ1-42 (produced by Mimotopes and purchased from ANAWA Trading SA), the second library contains biotinylated peptides using peptide 12 (aa12-20 of Aβ) from the first peptide library and substituting each amino acid in the sequence by an alanine (see […] below), and the third library contains biotinylated peptides 13, 14, or 15 (aa 13-21, 14-22 or 15-23 of Aβ) and substituting in each case the last amino acids to an alanine or to a glycine for aa 21 which is already an alanine (see table 5 below). A biotinylated complete Aβ1-42 peptide was used as positive control (Bachem). Epitope mapping was done according to the manufacturer's (Mimotopes) instructions. Briefly, Streptavidin coated plates (NUNC) were blocked with 0.1% BSA in PBS overnight at 4° C. After washing with PBS-0.05% Tween 20, plates were coated for 1 hour at RT with the different peptides from the library, diluted in 0.1% BSA, 0.1% Sodium Azide in PBS to a final concentration of 10 μM. After washing, plates were incubated for 1 hour at RT with the mACI-01-Ab7 C2 antibody or an isotype control mouse IgG2b antibody, diluted to 10 μg/ml in 2% BSA, 0.1% Sodium Azide in PBS. Plates were washed again and incubated with alkaline phosphatase conjugated goat anti mouse IgG for 1 h at RT.

Test [9] addresses T3, peptide A20 of the second library (aa …). The description is as above. The protocol:
as §3

For test [10], the target named is T7, peptide 15 of the first library (aa 15-23 of Aβ) (also: biotinylated, position not given here).
T7 construct: also called p15-23
T7 peptide: QKLVFFAED
The test is described as follows: ELISA on biotinylated peptides on streptavidin plates, antibody at 10 µg/ml. Here is the method:
as §3

Test [11] has as its target T8, peptide 14 of the first library (aa 14-22 of Aβ) (also: biotinylated, position not given here).
T8 construct: also called p14-22
T8 peptide: HQKLVFFAE
The description is as above. The protocol:
as §3

T4 sequence (P05067 672-713 limits assumed): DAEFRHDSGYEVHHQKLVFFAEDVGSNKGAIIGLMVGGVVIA
T5 sequence (P05067 672-713 limits assumed): as above
T6 sequence (P05067 672-713 limits assumed): as above

B1: humanized anti-human amyloid beta monoclonal antibody hC2 (antibody, human IgG4 S228P, kappa, V domains shown)
VH: EVQLVESGGGLVQPGGSLRLSCAASGFTFSSYGMSWVRQAPGKGLELVASINSNGGSTYYPDSVKGRFTISRDNAKNSLYLQMNSLRAEDTAVYYCASGDYWGQGTTVTVSS
VL: DIVMTQSPLSLPVTPGEPASISCRSSQSLVYSNGDTYLHWYLQKPGQSPQLLIYKVSNRFSGVPDRFSGSGSGTDFTLKISRVEAEDVGVYYCSQSTHVPWTFGQGTKVEIKR
notes: also called humanized antibody C2; humanized C2
Regarding B1, the binding result in test [1], in [2], in [3] and in test [4] was “no binding (tested: 200 ng/ml (single concentration))” throughout.

B2: mouse monoclonal antibody ACI-01-Ab7C2 (antibody, V domains shown)
VH: EVQLVESGGGLVQPGGSLKLSCAASGFTFSSYGMSWVRQTPDKRLELVASINSNGGSTYYPDSVKGRFTISRDNAKNTLYLQMSSLKSEDTAMYYCASGDYWGQGSTLTVSS
VL: DVVMTQTPLSLPVSLGDQASISCRSSQSLVYSNGDTYLHWYLQKPGQSPKLLIYKVSNRFSGVPDRFSGSGSGTDFTLKISRVEAEDLGVYFCSQSTHVPWTFGGGTKLEIK
notes: also called mC2; mACI-01-Ab7 C2
Consider B2, for which the kon in [5] stood at 18000 M⁻¹ s⁻¹. Moreover, the O.D stood at 2.81 O.D in test [6], 1.62 O.D with amyloid beta 1-42 fibers and 1.16 O.D in [7]. Also, the binding result in [8] is given as “no binding (tested: 10 µg/ml)”; in test [9], “no binding (tested: 10 µg/ml)”; in [10] it was “binds”; in [11], “binds”.
